This passage reports Kd results from PMC6602975.

The target in test [1] is H4K16ac nucleosome (X. laevis | not stated). Kind of test: native gel or EMSA; increasing amounts of Orc1 or Sir3 proteins with 50 or 25 nM nucleosomes; 10 mM Tris pH 7.5, 50 mM NaCl, 2.5% glycerol, 1 mM DTT; room temperature, 30 min; native PAGE 6% (Sir3) or 8% (Orc1), 0.2X TBE; decrease of free nucleosome; apparent KD from a Hill fit. (In EMSA bound probe runs differently from free probe, usually more slowly.)

For test [2], the target named is Unmodified nucleosome core particle (X. laevis histone octamer on 147 bp Widom-601 DNA) (X. laevis). Described as above.

Sequence of Wild-type Orc1 (1–214) BAH domain (P54784 1-214): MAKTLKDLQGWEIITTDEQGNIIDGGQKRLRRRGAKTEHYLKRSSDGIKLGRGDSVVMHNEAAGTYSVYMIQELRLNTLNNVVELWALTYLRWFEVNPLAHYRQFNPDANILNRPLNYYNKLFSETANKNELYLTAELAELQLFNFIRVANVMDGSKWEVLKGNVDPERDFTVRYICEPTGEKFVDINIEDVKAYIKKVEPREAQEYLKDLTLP

Turning to “Wild-type Orc1 (1–214) BAH domain (from UniProt P54784 1-214) (domain or fragment)”, the Kd was determined as 1500 nM in test [1] and 1300 nM in test [2].
